Key:
[1] = target: S-R (SARS-CoV-2 S protein trimer, furin site deleted to a single arginine) (SARS-CoV-2); assay: negative stain EM
[2] = target: S-R/PP (SARS-CoV-2 S protein trimer, furin site deleted to a single arginine, two stabilizing prolines) (SARS-CoV-2); assay: negative stain EM

S-R (SARS-CoV-2 S protein trimer, furin site deleted to a single arginine)
stoichiometry N [1]: 3

S-R/PP (SARS-CoV-2 S protein trimer, furin site deleted to a single arginine, two stabilizing prolines)
stoichiometry N [2]: 3

From paper doi:10.1101/2021.01.14.426695
